This assay concerns the target Rabenosyn-5 (as printed for the GST pull-down of Figure 7). As to the kind of experiment: pull-down; GST-effector fusion protein on glutathione-Sepharose beads incubated with clarified lysate of transfected cells for 1 h at 4 °C; lysis buffer 20 mM Hepes pH 7.4, 100 mM NaCl, 5 mM MgCl2, 0.1% NP40, 10% glycerol, 1 mM DTT; washed 3 times with PBS-T (1% Triton X-100); immunoblot with anti-Myc or anti-Rab antibody, bands quantified with LI-COR Odyssey. On the technique in general: A western blot detects proteins with antibodies after separation by electrophoresis.

“Rab22 (from UniProt Q9UL26 1-194) (natural protein)” came in with a fold binding to Rabenosyn-5 relative to EEA1 of 2 to 3 fold.

Values taken from article PMC9403361.
